Patent US20160185837A1 (Medimmune Limited, priority 2013, published 2016)
Where two headings read alike, the source gives them in different places.

Legend:
Type in all cases: cell-based
[1] = molecular target: T1, human GLP-1 receptor (hGLP-1r) (Homo sapiens, UniProt P43220); assay: BSA-cAMP assay, cells expressing human GLP-1 receptor; conditions: BSA-cAMP assay
T1 construct: expressed in transfected cells
Protocol: (§1) One basic cAMP assays was performed, differing in the medium used for the assay, the “BSA-cAMP assay”:
(§2) BSA-based assay medium: 0.1% bovine serum albumin (BSA) in
(§3) In certain aspects, the assay can also be carried out in medium supplemented with serum albumin that corresponds to the receptor being tested, e.g., human serum albumin for testing cAMP activity at hGIPr or hGLP-1r, rat serum albumin for testing cAMP activity at rGIPr or rGLP-1r, and so on. […] All sample dilutions were made in duplicate.
(§4) A frozen cryo-vial of cells expressing the receptor of interest was thawed rapidly in a water-bath, transferred to pre-warmed assay media and spun at 240×g for 5 minutes. Cells were re-suspended in assay buffer at an optimized concentration (e.g., hGLP-1r and hGIPr cells at 0.5×10^5 cells/ml).
(§5) To this, 5 μL cell suspension was added and the plates incubated at room temperature for 30 minutes.
(§6) cAMP levels were measured using a commercially available cAMP dynamic 2 HTRF kit (Cisbio, Cat #62AM4PEJ), following the two step protocol as per manufacturer's recommendations. In brief; anti-cAMP cryptate (donor fluorophore) and cAMP-d2 (acceptor fluorophore) were made up separately by diluting each 1/20 in conjugate & lysis buffer provided in the kit. 5 μL anti-cAMP cryptate was added to all wells of the assay plate, and 5 μL cAMP-d2 added to all wells except non-specific binding (NSB) wells, to which conjugate and lysis buffer was added. […] Data was transformed to % Delta F as described in manufacturer's guidelines and then transformed to percent activation of maximal native agonist response and analysed by 4-parameter logistic fit to determine EC50 values.
(§7) We used unconstrained 4 parameter logistic fit of data, curve mid-point to determine EC50. This was tested on two occasions, not two batches.

[2] = molecular target: T2, human GIP receptor (hGIPr) (Homo sapiens, UniProt P48546); assay: BSA-cAMP assay, cells expressing human GIP receptor; conditions: BSA-cAMP assay
T2 construct: expressed in transfected cells
T2 sequence (P48546 22-466): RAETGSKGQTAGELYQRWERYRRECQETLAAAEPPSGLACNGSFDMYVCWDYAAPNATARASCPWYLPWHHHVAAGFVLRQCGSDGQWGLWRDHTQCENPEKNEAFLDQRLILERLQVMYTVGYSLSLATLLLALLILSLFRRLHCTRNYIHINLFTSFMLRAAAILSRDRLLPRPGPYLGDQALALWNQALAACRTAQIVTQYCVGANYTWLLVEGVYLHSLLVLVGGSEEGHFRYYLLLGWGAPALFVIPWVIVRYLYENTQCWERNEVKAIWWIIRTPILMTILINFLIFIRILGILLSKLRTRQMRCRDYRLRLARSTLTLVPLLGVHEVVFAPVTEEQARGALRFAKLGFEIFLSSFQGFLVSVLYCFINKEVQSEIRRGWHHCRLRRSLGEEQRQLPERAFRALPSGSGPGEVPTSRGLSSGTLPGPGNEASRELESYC
Protocol: For human GIPr, two different lines were used, shown as “hGIPr” and “hGIPr (C3)” in Table 11.
as §1, §2, §3, §4, §5, §6, §7

[3] = molecular target: T3, human glucagon receptor (GCGr) (Homo sapiens, UniProt P47871); assay: BSA-cAMP assay, cells expressing human glucagon receptor; conditions: Batch 1, read-out: hGCGr cAMP activity EC50
T3 construct: expressed in transfected cells; host or cells: HEK293s or CHO cells
Protocol: as §1, §2, §3, §4, §5, §6, §7

[4] = molecular target: T4, mouse GLP-1 receptor (mGLP-1r) (Mus musculus, UniProt O35659); assay: BSA-cAMP assay, cells expressing mouse GLP-1 receptor; conditions: BSA-cAMP assay
T4 construct: expressed in transfected cells; host or cells: HEK293s or CHO cells
T4 sequence (O35659 22-463): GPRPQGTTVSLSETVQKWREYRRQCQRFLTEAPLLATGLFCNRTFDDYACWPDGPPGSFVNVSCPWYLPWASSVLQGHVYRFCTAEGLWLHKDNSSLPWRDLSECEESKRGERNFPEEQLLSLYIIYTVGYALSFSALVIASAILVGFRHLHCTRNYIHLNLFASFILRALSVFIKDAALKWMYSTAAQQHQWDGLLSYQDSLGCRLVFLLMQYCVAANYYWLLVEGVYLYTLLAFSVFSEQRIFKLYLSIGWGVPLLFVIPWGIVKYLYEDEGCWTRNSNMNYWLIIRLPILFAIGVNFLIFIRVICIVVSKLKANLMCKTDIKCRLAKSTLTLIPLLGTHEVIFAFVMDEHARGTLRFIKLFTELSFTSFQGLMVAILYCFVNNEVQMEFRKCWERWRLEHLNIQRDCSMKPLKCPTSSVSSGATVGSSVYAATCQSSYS
Protocol: as §1, §2, §3, §4, §5, §6, §7
(§8) In order to be able to carry out in vivo studies in rodents, IP088 was tested for potency against the mouse receptors mGIPr and mGLP-1r as well as the rat receptors rGIPr and rGLP-1r, using cells expressing the respective receptors in the cAMP assay described above.

[5] = molecular target: T5, mouse GIP receptor (mGIPr) (Mus musculus, UniProt Q0P543); assay: BSA-cAMP assay, cells expressing mouse GIP receptor; conditions: BSA-cAMP assay
T5 construct: expressed in transfected cells; host or cells: HEK293s or CHO cells
T5 sequence (Q0P543 19-460): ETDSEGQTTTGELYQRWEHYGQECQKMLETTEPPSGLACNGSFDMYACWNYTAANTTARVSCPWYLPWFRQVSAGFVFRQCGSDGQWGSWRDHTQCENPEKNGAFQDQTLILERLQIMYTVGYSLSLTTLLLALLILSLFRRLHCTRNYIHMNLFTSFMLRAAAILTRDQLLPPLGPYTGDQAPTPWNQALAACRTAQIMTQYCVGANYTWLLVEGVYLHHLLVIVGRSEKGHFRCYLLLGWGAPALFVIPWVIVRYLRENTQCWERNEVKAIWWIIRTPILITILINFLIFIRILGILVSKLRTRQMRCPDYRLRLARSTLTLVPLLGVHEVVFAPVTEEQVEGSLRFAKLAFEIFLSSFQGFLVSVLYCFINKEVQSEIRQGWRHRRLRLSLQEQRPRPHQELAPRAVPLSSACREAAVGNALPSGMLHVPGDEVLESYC
Protocol: as §1, §2, §3, §4, §5, §6, §7, §8

[6] = molecular target: T6, rat GLP-1 receptor (rGLP-1r) (Rattus norvegicus, UniProt P32301); assay: BSA-cAMP assay, cells expressing rat GLP-1 receptor; conditions: BSA-cAMP assay
T6 construct: expressed in transfected cells; host or cells: HEK293s or CHO cells
T6 sequence (P32301 22-463): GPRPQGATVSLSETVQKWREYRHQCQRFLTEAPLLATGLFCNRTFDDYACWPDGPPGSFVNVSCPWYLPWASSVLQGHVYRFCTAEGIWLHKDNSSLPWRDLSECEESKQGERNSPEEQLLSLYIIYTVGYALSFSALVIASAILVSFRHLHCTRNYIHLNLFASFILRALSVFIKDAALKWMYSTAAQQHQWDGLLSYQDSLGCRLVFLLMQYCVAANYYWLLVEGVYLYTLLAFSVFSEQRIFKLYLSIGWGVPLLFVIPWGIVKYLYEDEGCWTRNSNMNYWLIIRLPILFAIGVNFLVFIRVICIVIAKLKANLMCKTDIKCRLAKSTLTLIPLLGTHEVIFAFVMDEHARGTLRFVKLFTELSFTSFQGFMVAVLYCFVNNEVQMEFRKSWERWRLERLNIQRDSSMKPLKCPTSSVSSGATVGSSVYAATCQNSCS
Protocol: as §1, §2, §3, §4, §5, §6, §7, §8

rat GIP receptor (rGIPr) = molecular target: T7, rat GIP receptor (rGIPr) (Rattus norvegicus, UniProt P43219); assay: BSA-cAMP assay, cells expressing rat GIP receptor; conditions: BSA-cAMP assay
T7 construct: expressed in transfected cells; host or cells: HEK293s or CHO cells
T7 sequence (P43219 19-455): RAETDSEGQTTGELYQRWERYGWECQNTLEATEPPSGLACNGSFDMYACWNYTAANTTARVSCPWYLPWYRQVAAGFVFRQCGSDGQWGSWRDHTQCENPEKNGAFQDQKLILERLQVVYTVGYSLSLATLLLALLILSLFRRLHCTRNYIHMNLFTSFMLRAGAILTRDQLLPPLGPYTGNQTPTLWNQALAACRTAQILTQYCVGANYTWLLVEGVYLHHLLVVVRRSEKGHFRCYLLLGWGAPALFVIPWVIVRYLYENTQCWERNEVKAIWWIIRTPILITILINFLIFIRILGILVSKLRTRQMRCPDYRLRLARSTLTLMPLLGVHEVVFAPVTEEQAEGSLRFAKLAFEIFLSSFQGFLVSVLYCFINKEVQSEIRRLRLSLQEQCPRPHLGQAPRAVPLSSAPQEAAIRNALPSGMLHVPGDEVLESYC
Protocol: as §1, §2, §3, §4, §5, §6, §7, §8

[7] = Batch 1, read-out: hGLP1r cAMP activity EC50
[8] = Batch 1, read-out: hGIPr cAMP activity EC50
[9] = Batch 1, read-out: mGLP1r cAMP activity EC50
[10] = Batch 1, read-out: mGIPr cAMP activity EC50
[11] = Batch 1, read-out: rGLP1r cAMP activity EC50
[12] = Batch 1, read-out: rGIPr cAMP activity EC50

T1 sequence (P43220 24-463): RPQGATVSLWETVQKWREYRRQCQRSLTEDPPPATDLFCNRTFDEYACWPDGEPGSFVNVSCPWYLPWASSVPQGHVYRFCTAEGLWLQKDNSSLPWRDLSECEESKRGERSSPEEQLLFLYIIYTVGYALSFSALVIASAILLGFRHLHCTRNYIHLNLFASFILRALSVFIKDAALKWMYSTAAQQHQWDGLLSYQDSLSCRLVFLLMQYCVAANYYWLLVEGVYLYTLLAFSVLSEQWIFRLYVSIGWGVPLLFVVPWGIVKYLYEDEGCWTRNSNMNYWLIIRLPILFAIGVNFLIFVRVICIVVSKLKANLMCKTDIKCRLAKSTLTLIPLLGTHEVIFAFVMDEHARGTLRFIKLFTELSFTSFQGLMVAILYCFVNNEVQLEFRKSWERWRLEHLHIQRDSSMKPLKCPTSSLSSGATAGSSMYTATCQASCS
T3 sequence (P47871 26-477): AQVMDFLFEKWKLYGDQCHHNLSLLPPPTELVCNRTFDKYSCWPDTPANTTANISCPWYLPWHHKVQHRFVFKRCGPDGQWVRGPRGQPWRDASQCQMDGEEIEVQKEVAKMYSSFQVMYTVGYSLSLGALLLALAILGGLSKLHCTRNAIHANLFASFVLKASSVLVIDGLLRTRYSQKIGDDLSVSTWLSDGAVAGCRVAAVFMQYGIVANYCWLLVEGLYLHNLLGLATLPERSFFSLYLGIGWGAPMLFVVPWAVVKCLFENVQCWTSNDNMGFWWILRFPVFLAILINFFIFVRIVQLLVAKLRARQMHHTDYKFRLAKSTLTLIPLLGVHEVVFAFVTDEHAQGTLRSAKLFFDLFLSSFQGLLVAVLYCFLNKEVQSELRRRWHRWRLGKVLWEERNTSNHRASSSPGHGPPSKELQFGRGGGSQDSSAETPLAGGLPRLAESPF

Molecule | EC50 [1, 7] [nM] | EC50 [2, 8] [nM] | EC50 [3] [nM] | EC50 [4, 9] [nM] | EC50 [5, 10] [nM] | EC50 [6, 11] [nM] | EC50 (rat GIP receptor (rGIPr); [12]) [nM] | EC50 ([1]; batch 1 unless a batch is given, read-out: cAMP activity hGLP1r (EC50)) [nM] | EC50 ([2]; batch 1 unless a batch is given, read-out: cAMP activity hGIPr (EC50)) [nM] | EC50 ([4]; read-out: cAMP activity mGLP1r (EC50)) [nM] | EC50 ([5]; read-out: cAMP activity mGIPr (EC50)) [nM] | EC50 ([6]; read-out: cAMP activity rGLP1r (EC50)) [nM] | EC50 (rat GIP receptor (rGIPr); read-out: cAMP activity rGIPr (EC50)) [nM]
IP301 (protein) YSEGTFTSDVSSYLEREAIDEFIAWLLKGGAAAGGSGSTASSGSGSATGGGGAATHTCPPC | 0.31 | 0.12 | 12000 | 1.9 | 22 | 0.058 | 4.7 |  |  |  |  |  | 
IP378 (protein) YSEGTFTSLYRILLERQAIDEFIAWLLKGGAAAGGSGSTASSGSGSATGGGGAATHTCPPC | 17 |  | > 2250 | 100 | 3.1 |  | 0.4 |  |  |  |  |  | 
IP309 (protein) YSEGTFISDVSSYLERQAIDEFIAWLLKGGAAAGGSGSTASSGSGSATGGGGAATHTCPPC | 7.7 | 0.086 | 900 | 16 | 15 | 1.7 | 1.3 |  |  |  |  |  | 
IP394 (protein) YSEGMHTSDLSKLLERQAIDEFIAWLLKGGAAAGGSGSTASSGSGSATGGGGAATHTCPPC |  | 0.0095 | > 17600 | 10 | 10 | 0.23 | 0.06 |  |  |  |  |  | 
IP306 (protein) YSEGTFTSDYSKLLERQAIDEFIAWLLKGGAAAGGSGSTASSGSGSATGGGGAATHTCPPC | 0.1 | 0.011 | 220 | 0.25 | 0.25 | 0.015 | 0.026 |  |  |  |  |  | 
IP310 (protein) YSEGTFTSDVSSYMERQAIDEFIAWLLKGKAAAGGSGSTASSGSGSATGGGGAATHTCPPC | 0.35 | 0.15 | 3700 | 1.4 | 31 | 0.038 | 5.2 |  |  |  |  |  | 
IP307 (protein) YSEGTFTSDVSSYMERQAIDEFIAWLLKQGAAAGGSGSTASSGSGSATGGGGAATHTCPPC | 1.6 | 0.091 | 4100 | 6.5 | 31 | 0.21 | 5.2 |  |  |  |  |  | 
IP250 (protein, /note=“Description of Artificial Sequence Synthetic Peptide-linker-hinge polypeptide”) YSEGTFTSDVSIAMDRQAIDEFIAWLLKGGAAAGGSGSTASSGSGSATGGGGAATHTCPPCPAPEF |  |  |  |  |  |  |  | 1.1 | 0.11 | 22 | 35 | 2.2 | 5.3
